T1: TIAM2, Q8IVF5
T1 sequence (Q8IVF5 885-986, limits assumed, looked up): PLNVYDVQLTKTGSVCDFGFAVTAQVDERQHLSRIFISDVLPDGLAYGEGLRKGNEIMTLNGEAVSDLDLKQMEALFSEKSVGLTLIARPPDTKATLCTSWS

T2: LNX2_2, Q8N448
T2 sequence (Q8N448 334-432, limits assumed, looked up): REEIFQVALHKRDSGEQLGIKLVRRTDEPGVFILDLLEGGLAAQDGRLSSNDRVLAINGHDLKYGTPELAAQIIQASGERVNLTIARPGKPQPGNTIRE

T3: SNTG1, Q9NSN8
T3 sequence (Q9NSN8 52-150, limits assumed, looked up): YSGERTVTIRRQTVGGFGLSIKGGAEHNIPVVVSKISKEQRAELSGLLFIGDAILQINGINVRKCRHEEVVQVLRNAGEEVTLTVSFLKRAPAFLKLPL

T4: MPP2, Q14168
T4 sequence (Q14168 180-250, limits assumed, looked up): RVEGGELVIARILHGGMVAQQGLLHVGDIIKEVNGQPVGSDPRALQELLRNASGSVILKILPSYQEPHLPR

T5: APBA2_1, Q99767
T5 sequence (Q99767 563-664, limits assumed, looked up): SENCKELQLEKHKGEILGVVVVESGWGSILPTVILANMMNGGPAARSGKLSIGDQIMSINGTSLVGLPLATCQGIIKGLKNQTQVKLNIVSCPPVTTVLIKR

T6: APBA2_2, Q99767
T6 sequence (Q99767 654-744, limits assumed, looked up): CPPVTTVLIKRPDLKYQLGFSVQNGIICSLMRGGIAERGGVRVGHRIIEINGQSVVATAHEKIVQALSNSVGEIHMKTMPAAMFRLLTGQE

T7: MPDZ_12, O75970
T7 sequence (O75970 1857-1958, limits assumed, looked up): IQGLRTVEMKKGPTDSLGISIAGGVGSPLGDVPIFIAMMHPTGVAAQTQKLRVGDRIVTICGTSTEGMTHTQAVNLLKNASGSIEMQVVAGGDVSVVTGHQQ

T8: HTRA4, P83105
T8 sequence (P83105 378-476, limits assumed, looked up): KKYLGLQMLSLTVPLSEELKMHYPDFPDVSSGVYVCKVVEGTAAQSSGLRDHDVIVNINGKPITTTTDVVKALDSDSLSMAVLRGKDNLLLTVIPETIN

T9: FRMPD1, Q5SYB0
T9 sequence (Q5SYB0 52-145, limits assumed, looked up): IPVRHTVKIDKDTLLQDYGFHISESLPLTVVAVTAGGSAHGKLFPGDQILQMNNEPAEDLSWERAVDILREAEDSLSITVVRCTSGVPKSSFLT

T10: CARD11, Q9BXL7
T10 sequence (Q9BXL7 662-765, limits assumed, looked up): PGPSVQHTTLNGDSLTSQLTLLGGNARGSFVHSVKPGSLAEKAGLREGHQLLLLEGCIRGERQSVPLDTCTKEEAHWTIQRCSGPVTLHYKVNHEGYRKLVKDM

T11: GRIP1_7, Q9Y3R0
T11 sequence (Q9Y3R0 999-1096, limits assumed, looked up): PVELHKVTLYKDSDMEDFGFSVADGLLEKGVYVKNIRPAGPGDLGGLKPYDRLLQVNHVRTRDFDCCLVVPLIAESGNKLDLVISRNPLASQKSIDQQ

T12: MPP7, Q5T2T1
T12 sequence (Q5T2T1 134-230, limits assumed, looked up): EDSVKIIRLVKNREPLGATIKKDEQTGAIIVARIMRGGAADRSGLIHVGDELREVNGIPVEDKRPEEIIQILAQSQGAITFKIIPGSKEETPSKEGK

T13: DVL3, Q92997
T13 sequence (Q92997 244-331, limits assumed, looked up): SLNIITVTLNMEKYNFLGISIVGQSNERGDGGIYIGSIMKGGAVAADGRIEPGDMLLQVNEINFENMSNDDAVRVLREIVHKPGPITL

T14: NHERF3_3, Q5T2W1
T14 sequence (Q5T2W1 238-333, limits assumed, looked up): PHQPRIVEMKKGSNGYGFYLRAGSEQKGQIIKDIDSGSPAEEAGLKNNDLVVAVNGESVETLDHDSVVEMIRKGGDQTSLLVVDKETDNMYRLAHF

T15: PDZD7_3, Q9H5P4
T15 sequence (Q9H5P4 857-944, limits assumed, looked up): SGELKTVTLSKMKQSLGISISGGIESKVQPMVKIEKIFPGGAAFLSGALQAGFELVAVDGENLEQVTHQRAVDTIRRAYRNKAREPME

B1: KCNB1, Q14721 (peptide)
chain: AHGSTRDQSI
B2: TYRO3, Q06418 (peptide)
chain: QQGLLPHSSC
B3: IGSF5, Q9NSI5 (peptide)
chain: PEKVSNTTVV

These binders were tested against T1, TIAM2, Q8IVF5 (assay: holdup assay). Details: plain residues with an end cap or a label only (N-terminal biotin on a linker: ado-ado).
Design: key: below the threshold = too weak to quantify, mostly under pKd 3.1 to 4

Row | Binder | pKd
1 | B1 | 4.05
2 | B2 | below the threshold
3 | B3 | 4.04

The binders below were run against T2, LNX2_2, Q8N448 (assay: holdup assay). Details: plain residues with an end cap or a label only (N-terminal biotin on a linker: ado-ado).
Design: key: below the threshold = too weak to quantify, mostly under pKd 3.1 to 4

Row | Binder | pKd
4 | B1 | below the threshold
5 | B2 | below the threshold
6 | B3 | 5.14

These binders were tested against T3, SNTG1, Q9NSN8 (assay: holdup assay). Details: plain residues with an end cap or a label only (N-terminal biotin on a linker: ado-ado).
Design: key: below the threshold = too weak to quantify, mostly under pKd 3.1 to 4

Row | Binder | pKd
7 | B1 | 3.5
8 | B2 | below the threshold
9 | B3 | below the threshold

The binders below were run against GRIP2_3, Q9C0E4 (assay: holdup assay). Details: plain residues with an end cap or a label only (N-terminal biotin on a linker: ado-ado).
Chain of GRIP2_3, Q9C0E4 (Q9C0E4 238-339): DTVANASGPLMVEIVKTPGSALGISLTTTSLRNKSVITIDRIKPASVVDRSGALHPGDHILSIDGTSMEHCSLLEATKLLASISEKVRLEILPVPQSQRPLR
Design: key: below the threshold = too weak to quantify, mostly under pKd 3.1 to 4

Row | Binder | pKd
10 | B1 | below the threshold
11 | B2 | below the threshold
12 | B3 | below the threshold

Each binder was assayed against T4, MPP2, Q14168 (assay: holdup assay). Details: plain residues with an end cap or a label only (N-terminal biotin on a linker: ado-ado).
Design: key: below the threshold = too weak to quantify, mostly under pKd 3.1 to 4

Row | Binder | pKd
13 | B1 | below the threshold
14 | B2 | below the threshold
15 | B3 | below the threshold

Each binder was assayed against T5, APBA2_1, Q99767 (assay: holdup assay). Details: plain residues with an end cap or a label only (N-terminal biotin on a linker: ado-ado).
Design: key: below the threshold = too weak to quantify, mostly under pKd 3.1 to 4

Row | Binder | pKd
16 | B1 | below the threshold
17 | B2 | below the threshold
18 | B3 | below the threshold

What follows are binders tested against Inadl_3, Q8NI35 (assay: holdup assay). Details: plain residues with an end cap or a label only (N-terminal biotin on a linker: ado-ado).
Chain of Inadl_3, Q8NI35 (Q8NI35 359-469): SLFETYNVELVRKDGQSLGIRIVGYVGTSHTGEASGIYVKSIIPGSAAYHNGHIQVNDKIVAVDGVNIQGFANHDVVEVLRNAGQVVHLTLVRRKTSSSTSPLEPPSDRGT
Design: key: below the threshold = too weak to quantify, mostly under pKd 3.1 to 4

Row | Binder | pKd
19 | B1 | below the threshold
20 | B2 | below the threshold
21 | B3 | 3.48

What follows are binders tested against SCRIB_1, Q14160 (assay: holdup assay). Details: plain residues with an end cap or a label only (N-terminal biotin on a linker: ado-ado).
Chain of SCRIB_1, Q14160 (Q14160 718-814): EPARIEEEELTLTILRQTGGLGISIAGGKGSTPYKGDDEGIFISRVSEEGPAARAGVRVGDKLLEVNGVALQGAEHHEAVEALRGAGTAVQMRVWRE
Design: key: below the threshold = too weak to quantify, mostly under pKd 3.1 to 4

Row | Binder | pKd
22 | B1 | below the threshold
23 | B2 | below the threshold
24 | B3 | 3.56

What follows are binders tested against T6, APBA2_2, Q99767 (assay: holdup assay). Details: plain residues with an end cap or a label only (N-terminal biotin on a linker: ado-ado).
Design: key: below the threshold = too weak to quantify, mostly under pKd 3.1 to 4

Row | Binder | pKd
25 | B1 | below the threshold
26 | B2 | below the threshold
27 | B3 | below the threshold

These binders were tested against T7, MPDZ_12, O75970 (assay: holdup assay). Details: plain residues with an end cap or a label only (N-terminal biotin on a linker: ado-ado).
Design: key: below the threshold = too weak to quantify, mostly under pKd 3.1 to 4

Row | Binder | pKd
28 | B1 | 3.62
29 | B2 | 3.6
30 | B3 | below the threshold

These binders were tested against T8, HTRA4, P83105 (assay: holdup assay). Details: plain residues with an end cap or a label only (N-terminal biotin on a linker: ado-ado).
Design: key: below the threshold = too weak to quantify, mostly under pKd 3.1 to 4

Row | Binder | pKd
31 | B1 | below the threshold
32 | B2 | below the threshold
33 | B3 | below the threshold

The binders below were run against T9, FRMPD1, Q5SYB0 (assay: holdup assay). Details: plain residues with an end cap or a label only (N-terminal biotin on a linker: ado-ado).
Design: key: below the threshold = too weak to quantify, mostly under pKd 3.1 to 4

Row | Binder | pKd
34 | B1 | below the threshold
35 | B2 | below the threshold
36 | B3 | below the threshold

These binders were tested against T10, CARD11, Q9BXL7 (assay: holdup assay). Details: plain residues with an end cap or a label only (N-terminal biotin on a linker: ado-ado).
Design: key: below the threshold = too weak to quantify, mostly under pKd 3.1 to 4

Row | Binder | pKd
37 | B1 | below the threshold
38 | B2 | below the threshold
39 | B3 | below the threshold

These binders were tested against TJP1_2, Q07157 (assay: holdup assay). Details: plain residues with an end cap or a label only (N-terminal biotin on a linker: ado-ado).
Chain of TJP1_2, Q07157 (Q07157 181-274): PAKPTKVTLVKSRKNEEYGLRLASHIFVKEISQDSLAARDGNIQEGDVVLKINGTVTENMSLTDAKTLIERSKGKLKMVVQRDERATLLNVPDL
Design: key: below the threshold = too weak to quantify, mostly under pKd 3.1 to 4

Row | Binder | pKd
40 | B1 | below the threshold
41 | B2 | below the threshold
42 | B3 | below the threshold

What follows are binders tested against T11, GRIP1_7, Q9Y3R0 (assay: holdup assay). Details: plain residues with an end cap or a label only (N-terminal biotin on a linker: ado-ado).
Design: key: below the threshold = too weak to quantify, mostly under pKd 3.1 to 4

Row | Binder | pKd
43 | B1 | 3.48
44 | B2 | below the threshold
45 | B3 | below the threshold

The binders below were run against LIMK2, P53671 (assay: holdup assay). Details: plain residues with an end cap or a label only (N-terminal biotin on a linker: ado-ado).
Chain of LIMK2, P53671 (P53671 143-248): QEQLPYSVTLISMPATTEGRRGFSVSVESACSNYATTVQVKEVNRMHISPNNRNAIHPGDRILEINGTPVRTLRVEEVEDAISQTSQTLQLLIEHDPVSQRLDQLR
Design: key: below the threshold = too weak to quantify, mostly under pKd 3.1 to 4

Row | Binder | pKd
46 | B1 | below the threshold
47 | B2 | below the threshold
48 | B3 | below the threshold

Each binder was assayed against MAST2, Q6P0Q8 (assay: holdup assay). Details: plain residues with an end cap or a label only (N-terminal biotin on a linker: ado-ado).
Chain of MAST2, Q6P0Q8 (Q6P0Q8 1099-1202): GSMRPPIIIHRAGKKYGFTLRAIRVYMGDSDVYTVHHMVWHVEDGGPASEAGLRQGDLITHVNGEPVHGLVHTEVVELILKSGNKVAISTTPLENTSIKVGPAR
Design: key: below the threshold = too weak to quantify, mostly under pKd 3.1 to 4

Row | Binder | pKd
49 | B1 | below the threshold
50 | B2 | 3.83
51 | B3 | 4.99

The binders below were run against ARHGEF12, Q9NZN5-2 (assay: holdup assay). Details: plain residues with an end cap or a label only (N-terminal biotin on a linker: ado-ado).
Chain of ARHGEF12, Q9NZN5-2 (Q9NZN5 other isoform, or with tags, fused parts or gaps): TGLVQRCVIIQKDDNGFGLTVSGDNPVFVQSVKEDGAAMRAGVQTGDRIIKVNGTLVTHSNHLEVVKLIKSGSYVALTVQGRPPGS
Design: key: below the threshold = too weak to quantify, mostly under pKd 3.1 to 4

Row | Binder | pKd
52 | B1 | below the threshold
53 | B2 | 4.18
54 | B3 | 4.21

The binders below were run against T12, MPP7, Q5T2T1 (assay: holdup assay). Details: plain residues with an end cap or a label only (N-terminal biotin on a linker: ado-ado).
Design: key: below the threshold = too weak to quantify, mostly under pKd 3.1 to 4

Row | Binder | pKd
55 | B1 | below the threshold
56 | B2 | below the threshold
57 | B3 | below the threshold

What follows are binders tested against T13, DVL3, Q92997 (assay: holdup assay). Details: plain residues with an end cap or a label only (N-terminal biotin on a linker: ado-ado).
Design: key: below the threshold = too weak to quantify, mostly under pKd 3.1 to 4

Row | Binder | pKd
58 | B1 | 3.66
59 | B2 | below the threshold
60 | B3 | below the threshold

The binders below were run against AHNAK1, Q09666 (assay: holdup assay). Details: plain residues with an end cap or a label only (N-terminal biotin on a linker: ado-ado).
Chain of AHNAK1, Q09666 (Q09666 4-100): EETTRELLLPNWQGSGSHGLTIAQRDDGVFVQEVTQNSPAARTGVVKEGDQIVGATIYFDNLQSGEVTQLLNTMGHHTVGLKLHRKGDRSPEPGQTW
Design: key: below the threshold = too weak to quantify, mostly under pKd 3.1 to 4

Row | Binder | pKd
61 | B1 | below the threshold
62 | B2 | below the threshold
63 | B3 | below the threshold

What follows are binders tested against T14, NHERF3_3, Q5T2W1 (assay: holdup assay). Details: plain residues with an end cap or a label only (N-terminal biotin on a linker: ado-ado).
Design: key: below the threshold = too weak to quantify, mostly under pKd 3.1 to 4

Row | Binder | pKd
64 | B1 | below the threshold
65 | B2 | below the threshold
66 | B3 | below the threshold

These binders were tested against T15, PDZD7_3, Q9H5P4 (assay: holdup assay). Details: plain residues with an end cap or a label only (N-terminal biotin on a linker: ado-ado).
Design: key: below the threshold = too weak to quantify, mostly under pKd 3.1 to 4

Row | Binder | pKd
67 | B1 | 3.67
68 | B2 | 3.9
69 | B3 | 4.66
